Test results as given in the supplement of paper PMC11316812.
± gives the standard deviation of the averaged measurements.

Assays:
MCF7 = test: percentage of EdU-negative (G0-arrested) nuclei per well, 72 h; higher = more G0 arrest; details: reference: sequence is the full UniProt precursor, the tested protein was the secreted form or ectodomain
hTERT-HMEC = test: as above; details: reference: sequence is the full UniProt precursor, the tested protein was the secreted form or ectodomain
[1] = protein concentration 0.0185 µM
[2] = protein concentration 0.03125 µM
[3] = protein concentration 0.3125 µM
[4] = protein concentration 0.0225 µM
[5] = protein concentration 0.0237143 µM
[6] = protein concentration 0.237143 µM
[7] = protein concentration 0.0085 µM
[8] = protein concentration 0.0111429 µM
[9] = protein concentration 0.111429 µM
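Further: secreted proteins added to cultured cells, EdU pulse at the end, nuclei found by Hoechst imaging, EdU status from nuclear versus surrounding ring intensity ratio, PBS as neutral control.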

Sequence: MVTSSFPISVAVFALITLQVGTQDSFIAAVYEHAVILPNKTETPVSQEDALNLMNENIDILETAIKQAAEQGARIIVTPEDALYGWKFTRETVFPYLEDIPDPQVNWIPCQDPHRFGHTPVQARLSCLAKDNSIYVLANLGDKKPCNSRDSTCPPNGYFQYNTNVVYNTEGKLVARYHKYHLYSEPQFNVPEKPELVTFNTAFGRFGIFTCFDIFFYDPGVTLVKDFHVDTILFPTAWMNVLPLLTAIEFHSAWAMGMGVNLLVANTHHVSLNMTGSGIYAPNGPKVYHYDMKTELGKLLLSEVDSHPLSSLAYPTAVNWNAYATTIKPFPVQKNTFRGFISRDGFNFTELFENAGNLTVCQKELCCHLSYRMLQKEENEVYVLGAFTGLHGRRRREYWQVCTLLKCKTTNLTTCGRPVETASTRFEMFSLSGTFGTEYVFPEVLLTEIHLSPGKFEVLKDGRLVNKNGSSGPILTVSLFGRWYTKDSLYSSCGTSNSAITYLLIFILLMIIALQNIVML
- percentage of EdU-negative (MCF7; [1]): 25.8 ± 0.6%
- percentage of EdU-negative (MCF7; protein concentration 0.185 µM): 28.11 ± 0.25%
- percentage of EdU-negative (hTERT-HMEC; [1]): 3.63 ± 0.35%
- percentage of EdU-negative (hTERT-HMEC; protein concentration 0.185 µM): 6.84 ± 0.58%

Sequence: MVWKVAVFLSVALGIGAVPIDDPEDGGKHWVVIVAGSNGWYNYRHQADACHAYQIIHRNGIPDEQIVVMMYDDIAYSEDNPTPGIVINRPNGTDVYQGVPKDYTGEDVTPQNFLAVLRGDAEAVKGIGSGKVLKSGPQDHVFIYFTDHGSTGILVFPNEDLHVKDLNETIHYMYKHKMYRKMVFYIEACESGSMMNHLPDNINVYATTAANPRESSYACYYDEKRSTYLGDWYSVNWMEDSDVEDLTKETLHKQYHLVKSHTNTSHVMQYGNKTISTMKVMQFQGMKRKASSPVPLPPVTHLDLTPSPDVPLTIMKRKLMNTNDLEESRQLTEEIQRHLDARHLIEKSVRKIVSLLAASEAEVEQLLSERAPLTGHSCYPEALLHFRTHCFNWHSPTYEYALRHLYVLVNLCEKPYPLHRIKLSMDHVCLGHY
- percentage of EdU-negative (MCF7; [2]): 26.412 ± 0.015%
- percentage of EdU-negative (MCF7; [3]): 26 ± 1.2%
- percentage of EdU-negative (hTERT-HMEC; [2]): 5.13 ± 0.28%
- percentage of EdU-negative (hTERT-HMEC; [3]): 5.28 ± 0.11%

Sequence: MVWKWMPLLLLLVCVATMCSAQDRTDLLNVCMDAKHHKTKPGPEDKLHDQCSPWKKNACCTASTSQELHKDTSRLYNFNWDHCGKMEPACKRHFIQDTCLYECSPNLGPWIQQVNQSWRKERFLDVPLCKEDCQRWWEDCHTSHTCKSNWHRGWDWTSGVNKCPAGALCRTFESYFPTPAALCEGLWSHSYKVSNYSRGSGRCIQMWFDSAQGNPNEEVARFYAAAMHVNAGEMLHGTGGLLLSLALMLQLWLLG
- percentage of EdU-negative (MCF7; [4]): 28.59 ± 0.11%
- percentage of EdU-negative (MCF7; protein concentration 0.225 µM): 27.6 ± 2.5%
- percentage of EdU-negative (hTERT-HMEC; [4]): 4.38 ± 0.49%
- percentage of EdU-negative (hTERT-HMEC; protein concentration 0.225 µM): 5.92 ± 0.29%

Sequence: MVWRVPPFLLPILFLASHVGAAVDLTLLANLRLTDPQRFFLTCVSGEAGAGRGSDAWGPPLLLEKDDRIVRTPPGPPLRLARNGSHQVTLRGFSKPSDLVGVFSCVGGAGARRTRVIYVHNSPGAHLLPDKVTHTVNKGDTAVLSARVHKEKQTDVIWKSNGSYFYTLDWHEAQDGRFLLQLPNVQPPSSGIYSATYLEASPLGSAFFRLIVRGCGAGRWGPGCTKECPGCLHGGVCHDHDGECVCPPGFTGTRCEQACREGRFGQSCQEQCPGISGCRGLTFCLPDPYGCSCGSGWRGSQCQEACAPGHFGADCRLQCQCQNGGTCDRFSGCVCPSGWHGVHCEKSDRIPQILNMASELEFNLETMPRINCAAAGNPFPVRGSIELRKPDGTVLLSTKAIVEPEKTTAEFEVPRLVLADSGFWECRVSTSGGQDSRRFKVNVKVPPVPLAAPRLLTKQSRQLVVSPLVSFSGDGPISTVRLHYRPQDSTMDWSTIVVDPSENVTLMNLRPKTGYSVRVQLSRPGEGGEGAWGPPTLMTTDCPEPLLQPWLEGWHVEGTDRLRVSWSLPLVPGPLVGDGFLLRLWDGTRGQERRENVSSPQARTALLTGLTPGTHYQLDVQLYHCTLLGPASPPAHVLLPPSGPPAPRHLHAQALSDSEIQLTWKHPEALPGPISKYVVEVQVAGGAGDPLWIDVDRPEETSTIIRGLNASTRYLFRMRASIQGLGDWSNTVEESTLGNGLQAEGPVQESRAAEEGLDQQLILAVVGSVSATCLTILAALLTLVCIRRSCLHRRRTFTYQSGSGEETILQFSSGTLTLTRRPKLQPEPLSYPVLEWEDITFEDLIGEGNFGQVIRAMIKKDGLKMNAAIKMLKEYASENDHRDFAGELEVLCKLGHHPNIINLLGACKNRGYLYIAIEYAPYGNLLDFLRKSRVLETDPAFAREHGTASTLSSRQLLRFASDAANGMQYLSEKQFIHRDLAARNVLVGENLASKIADFGLSRGEEVYVKKTMGRLPVRWMAIESLNYSVYTTKSDVWSFGVLLWEIVSLGGTPYCGMTCAELYEKLPQGYRMEQPRNCDDEVYELMRQCWRDRPYERPPFAQIALQLGRMLEARKAYVNMSLFENFTYAGIDATAEEA
- percentage of EdU-negative (MCF7; [5]): 23.1 ± 1.1%
- percentage of EdU-negative (MCF7; [6]): 26.39 ± 0.034%
- percentage of EdU-negative (hTERT-HMEC; [5]): 5.57 ± 1.2%
- percentage of EdU-negative (hTERT-HMEC; [6]): 5.36 ± 0.036%

Sequence: MWAGLLLRAACVALLLPGAPARGYTGRKPPGHFAAERRRLGPHVCLSGFGSGCCPGWAPSMGGGHCTLPLCSFGCGSGICIAPNVCSCQDGEQGATCPETHGPCGEYGCDLTCNHGGCQEVARVCPVGFSMTETAVGIRCTDIDECVTSSCEGHCVNTEGGFVCECGPGMQLSADRHSCQDTDECLGTPCQQRCKNSIGSYKCSCRTGFHLHGNRHSCVDVNECRRPLERRVCHHSCHNTVGSFLCTCRPGFRLRADRVSCEAFPKAVLAPSAILQPRQHPSKMLLLLPEAGRPALSPGHSPPSGAPGPPAGVRTTRLPSPTPRLPTSSPSAPVWLLSTLLATPVPTASLLGNLRPPSLLQGEVMGTPSSPRGPESPRLAAGPSPCWHLGAMHESRSRWTEPGCSQCWCEDGKVTCEKVRCEAACSHPIPSRDGGCCPSCTGCFHSGVVRAEGDVFSPPNENCTVCVCLAGNVSCISPECPSGPCQTPPQTDCCTCVPVRCYFHGRWYADGAVFSGGGDECTTCVCQNGEVECSFMPCPELACPREEWRLGPGQCCFTCQEPTPSTGCSLDDNGVEFPIGQIWSPGDPCELCICQADGSVSCKRTDCVDSCPHPIRIPGQCCPDCSAGCTYTGRIFYNNETFPSVLDPCLSCICLLGSVACSPVDCPITCTYPFHPDGECCPVCRDCNYEGRKVANGQVFTLDDEPCTRCTCQLGEVSCEKVPCQRACADPALLPGDCCSSCPDSLSPLEEKQGLSPHGNVAFSKAGRSLHGDTEAPVNCSSCPGPPTASPSRPVLHLLQLLLRTNLMKTQTLPTSPAGAHGPHSLALGLTATFPGEPGASPRLSPGPSTPPGAPTLPLASPGAPQPPPVTPERSFSASGAQIVSRWPPLPGTLLTEASALSMMDPSPSKTPITLLGPRVLSPTTSRLSTALAATTHPGPQQPPVGASRGEESTM [Q96DN2]
- percentage of EdU-negative (MCF7; [7]): 25.5 ± 1.1%
- percentage of EdU-negative (MCF7; protein concentration 0.085 µM): 26.4 ± 1.8%
- percentage of EdU-negative (hTERT-HMEC; [7]): 4.9939 ± 0.0014%
- percentage of EdU-negative (hTERT-HMEC; protein concentration 0.085 µM): 5.36 ± 0.4%

Sequence: MWAPRCRRFWSRWEQVAALLLLLLLLGVPPRSLALPPIRYSHAGICPNDMNPNLWVDAQSTCRRECETDQECETYEKCCPNVCGTKSCVAARYMDVKGKKGPVGMPKEATCDHFMCLQQGSECDIWDGQPVCKCKDRCEKEPSFTCASDGLTYYNRCYMDAEACSKGITLAVVTCRYHFTWPNTSPPPPETTMHPTTASPETPELDMAAPALLNNPVHQSVTMGETVSFLCDVVGRPRPEITWEKQLEDRENVVMRPNHVRGNVVVTNIAQLVIYNAQLQDAGIYTCTARNVAGVLRADFPLSVVRGHQAAATSESSPNGTAFPAAECLKPPDSEDCGEEQTRWHFDAQANNCLTFTFGHCHRNLNHFETYEACMLACMSGPLAACSLPALQGPCKAYAPRWAYNSQTGQCQSFVYGGCEGNGNNFESREACEESCPFPRGNQRCRACKPRQKLVTSFCRSDFVILGRVSELTEEPDSGRALVTVDEVLKDEKMGLKFLGQEPLEVTLLHVDWACPCPNVTVSEMPLIIMGEVDGGMAMLRPDSFVGASSARRVRKLREVMHKKTCDVLKEFLGLH [Q8TEU8]
- percentage of EdU-negative (MCF7; [8]): 25.8 ± 3%
- percentage of EdU-negative (MCF7; [9]): 28.02 ± 0.15%
- percentage of EdU-negative (hTERT-HMEC; [8]): 5.48 ± 1.1%
- percentage of EdU-negative (hTERT-HMEC; [9]): 6.03 ± 0.2%
